In IntAct's records for PubMed 17803994:

B1: Cytochrome b-245 light chain (Homo sapiens), P13498 (parent)
chain: MGQIEWAMWANEQALASGLILITGGIVATAGRFTQWYFGAYSIVAGVFVCLLEYPRGKRKKGSTMERWGQKYMTAVVKLFGPFTRNYYVRAVLHLLLSVPAGFLLATILGTACLAIASGIYLLAAVRGEQWTPIEPKPRERPQIGGTIKQPPSNPPPRPPAEARKKPSEEEAAVAAGGPPGGPQVNPIPVTDEVV
B2: Cytochrome b-245 light chain (Homo sapiens), P13498 (parent)
chain: B1 chain
partner: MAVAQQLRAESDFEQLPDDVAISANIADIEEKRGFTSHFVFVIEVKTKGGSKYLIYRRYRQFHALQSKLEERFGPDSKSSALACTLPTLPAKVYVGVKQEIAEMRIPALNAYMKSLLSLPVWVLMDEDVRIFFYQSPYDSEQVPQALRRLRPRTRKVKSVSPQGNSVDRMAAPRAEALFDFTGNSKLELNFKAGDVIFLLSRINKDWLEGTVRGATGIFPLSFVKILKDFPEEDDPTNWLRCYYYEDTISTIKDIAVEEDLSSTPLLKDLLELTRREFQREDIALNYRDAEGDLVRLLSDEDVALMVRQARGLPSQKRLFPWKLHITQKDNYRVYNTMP
B3: Neutrophil cytosol factor 4 (Homo sapiens), Q15080 (parent)
chain: B2 partner
partner: B1 chain

Variants of: B1
Settings: with ncf1_human NCF1, P14598
Chain of ncf1_human NCF1, P14598 (P14598 whole entry): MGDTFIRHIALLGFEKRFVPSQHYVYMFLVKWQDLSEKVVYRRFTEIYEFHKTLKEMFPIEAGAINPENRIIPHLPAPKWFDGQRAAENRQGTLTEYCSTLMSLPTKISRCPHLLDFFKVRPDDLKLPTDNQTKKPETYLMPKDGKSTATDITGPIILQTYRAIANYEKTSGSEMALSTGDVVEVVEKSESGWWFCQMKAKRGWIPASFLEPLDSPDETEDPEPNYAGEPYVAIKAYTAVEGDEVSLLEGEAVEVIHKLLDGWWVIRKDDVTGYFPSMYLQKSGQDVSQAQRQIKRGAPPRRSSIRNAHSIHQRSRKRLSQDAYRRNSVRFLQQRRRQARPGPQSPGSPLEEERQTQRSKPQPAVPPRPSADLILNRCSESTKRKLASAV

effect of a mutation on the interaction | Variant
decreasing interaction | MGQIEWAMWANEQALASGLILITGGIVATAGRFTQWYFGAYSIVAGVFVCLLEYPRGKRKKGSTMERWGQKYMTAVVKLFGPFTRNYYVRAVLHLLLSVPAGFLLATILGTACLAIASGIYLLAAVRGEQWTPIEPKPRERPQIGGTIKQPPSNPQPRPPAEARKKPSEEEAAVAAGGPPGGPQVNPIPVTDEVV [P156Q]

Variants of: B2
Settings: with ncf4_human NCF4, Q15080

effect of a mutation on the interaction | Variant
decreasing interaction | MGQIEWAMWANEQALASGLILITGGIVATAGRFTQWYFGAYSIVAGVFVCLLEYPRGKRKKGSTMERWGQKYMTAVVKLFGPFTRNYYVRAVLHLLLSVPAGFLLATILGTACLAIASGIYLLAAVRGEQWTPIEPKPRERPQIGGTIKQPPSNPQPRPPAEARKKPSEEEAAVAAGGPPGGPQVNPIPVTDEVV [P156Q]

Variants of: B3
Settings: with cy24a_human CYBA

effect of a mutation on the interaction | Variant
decreasing interaction | MAVAQQLRAESDFEQLPDDVAISANIADIEEKRGFTSHFVFVIEVKTKGGSKYLIYRRYRQFHALQSKLEERFGPDSKSSALACTLPTLPAKVYVGVKQEIAEMRIPALNAYMKSLLSLPVWVLMDEDVRIFFYQSPYDSEQVPQALRRLRPRTRKVKSVSPQGNSVDRMAAPRAEALFDFTGNSKLELNFKAGDVIFLLSRINKDRLEGTVRGATGIFPLSFVKILKDFPEEDDPTNWLRCYYYEDTISTIKDIAVEEDLSSTPLLKDLLELTRREFQREDIALNYRDAEGDLVRLLSDEDVALMVRQARGLPSQKRLFPWKLHITQKDNYRVYNTMP [W207R]
